Measurements from paper PMC9160250, “Nuclear Vav3 is required for polycomb repression complex-1 activity in B-cell lymphoblastic leukemogenesis” (Nature Communications, 2022).

Target: T1, Bmi1 (mouse (endogenous in Ba/F3 cells and …, UniProt P25916 1-324))
T1 construct: Bmi1, mouse, endogenous protein of Ba/F3 cells and of primary murine B-cell progenitors; also called PCGF4; source: endogenous, Ba/F3 cells (cytoplasmic and nuclear fractions; fixed cells) and murine B-cell progenitors (fixed cells)
T1 sequence (looked up): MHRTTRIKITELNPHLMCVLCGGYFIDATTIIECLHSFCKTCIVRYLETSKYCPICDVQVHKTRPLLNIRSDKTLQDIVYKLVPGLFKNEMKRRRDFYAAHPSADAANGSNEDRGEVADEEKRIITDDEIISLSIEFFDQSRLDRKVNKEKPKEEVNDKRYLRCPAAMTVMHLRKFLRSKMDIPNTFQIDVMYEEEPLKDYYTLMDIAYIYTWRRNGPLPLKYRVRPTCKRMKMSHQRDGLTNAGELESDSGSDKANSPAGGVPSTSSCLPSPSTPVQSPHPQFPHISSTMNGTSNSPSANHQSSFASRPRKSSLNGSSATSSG
Test: proximity ligation; Duolink PLA in fixed, permeabilised primary murine B-cell progenitors on fibronectin-coated slides (empty vector or p190-BCR-ABL transduced; WT, Rac2-/-, or Vav3-/- transduced with empty vector, Vav3 FL or Vav3 N369A); confocal microscopy
Settings: partners not purified

B1: Vav3 NA (N369A mutant which loses the GEF activity) (natural protein, UniProt Q9R0C8 1-847, looked up)
chain: MEPWKQCAQWLIHSKVLPPNHRVTWDSAQVFDLAQTLRDGVLLCQLLNNLRPHSINLKEINLRPQMSQFLCLKNIRTFLAACCDTFGMRKSELFEAFDLFDVRDFGKVIETLSRLSRTPIALATGIRPFPTEESINDEDIYKGLPDLIDETRVEDEEDLYDCVYGEDEGGEVYEDLMKAEEAQQPKSQENDIRSCCLAEIRQTEEKYTETLESIEKYFMAPLKRFLTAAEFDSVFINIPDLVKVHRSLMQEIHDSIVNKDDQNLYQVFINYKERLVIYGQYCSGVESAISNLDYISKTKEDVKLKLEECSKRANNGKFTLRDLLVVPMQRVLKYHLLLQELVKHTHDPMEKANLKLALDAMKDLAQYVAEVKRDNETLREIKQFQLSIENLNQPVLLFGRPQGDGEIRITTLDKHTKQERHIFLFDLAVIVCKRKGDNYEMKEIIDLQQYKIANNPTTDKENKKWSYGFYLIHTQGQNGLEFYCKTKDLKKKWLEQFEMALSNIRPDYADSNFHDFKMHTFTRVTSCRVCQMLLRGTFYQGYLCFKCGAKAHKECLGRVDNCGRVNSVEQGPFKPPEKRTNGLRRASRQVDPGLPKMQVIRNYTGTPAPGLHEGPPLHIQAGDTVELLRGDAHSVFWQGRNLASGEVGFFPSDAVKPSPCVPKPVDYSCQPWYAGPMERLQAETELINRVNSTYLVRHRTKESGEYAISIKYNNEAKHIKILTRDGFFHIAENRKFKSLMELVEYYKHHSLKEGFRTLDTTLQFPYKEPEQPAGQRGNRTGNSLLSPKVLGIAIARYDFCARDMRELSLLKGDMVKIYTKMSANGWWRGEVNGRVGWFPSTYVEEDE
notes: Vav3 with N369A; also called Vav3(N369A); Vav3N369A; source: lentiviral vector pCDH-EF1-MCS-IRES-GFP, transduced Vav3-/- leukemic murine B-cell progenitors (fixed cells)
fold reduction of the PLA signal against full-length Vav3: ~2 fold
